From the supplement of paper PMC9170038

Legend:
[1] = tested on: MS2 coat protein; assay: apparent KD of MS2 coat protein, switch ON state; designed switch direction (-1 OFF switch, 1 ON switch): -1; higher = weaker reporter binding; conditions: FMN input: 0 or 200 uM; Eterna round: R93 (includes R88 designs)
Outline: (§1)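 Designed RNA switches were transcribed on-chip from Illumina sequencing clusters. They were then titrated with SNAP-549-labelled MS2 coat protein (twofold steps, 0.7 or 1.5 nM to 3 µM; 0.8–1.5 h to 10–20 min per step) in 100 mM Tris-HCl pH 7.5, 80 mM KCl, 4 mM MgCl2, without or with constant ligand. Apparent KD is the per-design median of normalised cluster binding-curve fits.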

[2] = tested on: MS2 coat protein; assay: apparent KD of MS2 coat protein, switch OFF state (with FMN for OFF switches, without FMN for ON switches); designed switch direction (-1 OFF switch, 1 ON switch): -1; higher = weaker reporter binding; conditions: FMN input: 0 or 200 uM; Eterna round: R93 (includes R88 designs)
Outline: as §1

Row | Sequence | apparent KD of MS2 coat protein [1] [nM] | apparent KD of MS2 coat protein [2] [nM]
1 | AAGGGACAUGAGGAUCACCCAUGUGAGGAUAUGAUGCGAAUAAAGAAAUAAUAAAGCAUCAGAAGGCACACCAA [Mat - Exclusion 1 - Eli mod - D67] | 82.4 | 88.5
2 | AAGGGACAUGAGGAUCACCCAUGUUAGGAUAUGCAAAUAACAAACAACAAACAACAAAGCAGAAGGGACAAAAA [Mat - Exclusion 1 - Eli mod - D54] | 37.5 | 29.3
3 | AAGGGACAUGAGGAUCACCCAUGUUAGGAUAUGCUAUGGAAAAUAAAAAUAAAACAUAGCAGAAGGAACAAAAA [Denovo 8] | 39.2 | 61.8
4 | AAGGUAUAAGGAUAUACAUAGAUACAGACACAUGUUCAAGUACAUGAGGAUCACCCAUGUAGAAGGUAUAUAUA [AJ 13] | 29.2 | 26.7
5 | AAGGUUCGAGGAUAUACAUAGAUACAGAUACAUGUAGACGUACAUGAGGAUCACCCAUGUAGAAGGCGAAUAUA [AJ 25] | 69.7 | 142
6 | AAGUACUCAGGAUAUACAUGAGGAUCACCCAUGUGAUAAAAGCGUAAAAAACGCACAUGUAGAAGGGAGUACAA [JL In thr Red Again 2] | 140 | 84
7 | AAGUUGUCAGGAUAUGCUUGUCGUCACAAAAGUGAUGACGAGCAGAAGGGACAUGAGGAUCACCCAUGUAAAGA [JL eternac mod 2] | 65.8 | 117
8 | AAUAAAGCAGGAUAUACUAAAGAAAUGAAAAGAAAUAAAGAACAUGAGGAUCACCCAUGUAGAAGGGCUAAUAA [Semqen] | 42.8 | 18.4
9 | AAUAACCGAGGAUAUACAAAACCUGUGAUCUAGUGGAUUUUACAUGAGGAUCACCCAUGUAGAAGGCGGACAAG [Atdiiste] | 49.9 | 183
10 | AAUAACUCAGGAUAUACUAAAGAAAUGAAAAGAAAUAAAGAACAUGAGGAUCACCCAUGUAGAAGGGAGAAUAA [Wazad] | 94.2 | 55.1
11 | AAUAAGAGAGGAUAUACUAAAGAAAUGAAAAGGGAUAAAGAACAUGAGGAUCACCCAUGUAGAAGGCUCAAUAA [Khyan] | 24.3 | 40.3
12 | AAUAAGUCAGGAUAUACUAAAGAAAUGAAAAGAAAUAAAGAACAUGAGGAUCACCCAUGUAGAAGGGACAAUAA [Anati Djedkare] | 100 | 53.6
13 | AAUAAGUGAGGAUAUCCAAAUAGUAGAUAAGAUUCCCUAAAGGAGAAGGCACAUGAGGAUCACCCAUGUAAAUA [JR_Exc004_Sub006] | 36.1 | 31.5
14 | ACAGUUACAGGAUAUACAUGGGAAAAUAAAAAUAAAAAACUACAUGAGGAUCACCCAUGUAGAAGGGUAACUGA [Ex2 Design 198: Random 13] | 77.5 | 26.6
15 | ACCAAUGCAGGAUAUACAUGAGGAUCACCCAUGUAUAACCUACAUAGAUGAUAAAAAUGUAGAAGGGCAUUGGA [EX3 232: Super Stable 32] | 16 | 20.3
16 | ACCUGACAUGAGGAUCACCCAUGUCAGGAUAUGUACAUCAGGAAAAAAAAACUGAUGUACAGAAGGGACAAGGG [Design 6: Super Stable - A-U mutation 2] | 17.8 | 13.7
17 | ACGUACUGAGGAUAUACGAACAUGUCAAAAGACGUGAAGGGACAUGAGGAUCACCCAUGUAGAAGGCAGUACGA [Mat - Exclusion 2 - JL mod - D7] | 60.7 | 172
18 | ACGUGACAUGAGGAUCACCCAUGUUAGGAUAUGCGAAUUCAAAAUCAGCUAACGCUGAGCAGAAGGAACAUGGU [Esriange] | 36.2 | 88.9
19 | ACUUAGACAGGAUAUACGUGAGUGGAAAAAGUGUUUCCACUACAUGAGGAUCACCCAUGUAGAAGGGUCUAAGA [Ex2 Design 181: Random 6B] | 48.8 | 82.3
20 | AGAAAACAUGAGGAUCACCCAUGUAAGGAUAUGCUGAAAAACACGGAAAAAACGUGCAGCAGAAGGUACAAAAA [Mat - Exclusion 1 - Eli mod - D97] | 17.8 | 38.6
21 | AGAAAACAUGAGGAUCACCCAUGUCAGGAUAUCGAUGUCCAAAAAAAAGUGCGGGACUCGAGAAGGGACUUGGG [Mod of Erbelaed v.2 (favor state 2,lowered kcal by 2.7)] | 27.2 | 24.6
22 | AGAAAACAUGAGGAUCACCCAUGUGAGGAUAUCGAUGUCCAAAAAAAAGUGCGGACCUCGAGAAGGCACAUUGG [Mod of Erbelaed v.3 (favor state 2,lowered kcal by 1)] | 49.5 | 51.1
23 | AGAAAACAUGAGGAUCACCCAUGUGAGGAUAUGCAAAUAUAUACGAAAGAUUAUAAAAGCAGAAGGCACAAAAG [Meechl MS2 Ex1] | 35.8 | 57.7
24 | AGAAACCUAGGAUAUACAUGAGGAUCACCCAUGUAAAGAAAGAAGGGAGCCACAAGAAGUAGAAGGAGGAAGAA [JR_Exc003_Sub005] | 16.9 | 33.4
25 | AGAAAGUCAGGAUAUACGAAUAAGAAAAAAGACGAGAACGGACAUGAGGAUCACCCAUGUAGAAGGGACAAGAA [Diamond 15] | 91.2 | 40.6
26 | AGAGGACAUGAGGAUCACCCAUGUGAGGAUAUGCACAACUAAGGACAAGAUCGCUAUAGCAGAAGGCACGUACU [JR_EXc001_Sub809] | 39.3 | 33.8
27 | AGAUAGUCAGGAUAUACGAAAAUGUAAAAAGAAGUGAAGGGACAUGAGGAUCACCCAUGUAGAAGGGACUAGAA [74%, Web mod - With 5 less C's] | 100 | 86.6
28 | AGCAAGUAAGGAUAUGCGAAGUCAGGACACACACUGACAAAGCAGAAGGUACAUGAGGAUCACCCAUGUAAGCA [Mat - Exaclusion 4 - Eli mod - D62] | 21.8 | 14.9
29 | AGCUAGUCAGGAUAUACGAACAAGACAAAAGACGAGAACGGACAUGAGGAUCACCCAUGUAGAAGGGACUAGCA [Diamond 8] | 25.7 | 28.8
30 | AGCUAGUCAGGAUAUACGAACAUGUCAAAAGACGUGAAAGAACAUGAGGAUCACCCAUGUAGAAGGGACUAGCA [Mat - Exclusion 2 - JL-Eli mod - D48] | 19.4 | 18
